Assay results from the supplement of paper PMC10724198.
± gives the standard deviation of the averaged measurements.

Tested on: Saccharomyces cerevisiae
Experiment: protein stability index of tFT-peptide fusion (C-terminal peptide) (PSI (0-1 scale)); higher = more stable (slower turnover)
Settings: temperature: 30 C
Description: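 MPS profiling in S. cerevisiae of the yeast C-terminome library: the last 12 aa of each annotated ORF are fused to the C-terminus of a sfGFP-mCherry timer, after a GGGS linker. Cells are FACS-sorted into 8 mCherry/sfGFP bins and deep-sequenced. PSI runs from 0 (unstable) to 1 (stable); wild type and das1Δ backgrounds, two technical replicates each.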

[1] = genetic background: das1 deletion

Sequence | protein stability index [1] | protein stability index (genetic background: wild type)
YLLENEPKDSFA [DCP1 C-terminal 12 aa] | 0.703 ± 0.032 | 0.731 ± 0.029
VSYFSIFSLFFF [YKL096C-B C-terminal 12 aa] | 0.667 ± 0.047 | 0.603 ± 0.016
FALVLAYMRLLT [FMP32 C-terminal 12 aa] | 0.4219 ± 0.0012 | 0.237 ± 0.012
FSSSRDDISFDI [DRS2 C-terminal 12 aa] | 0.7 ± 0.023 | 0.664 ± 0.0014
VFEISNKELFLT [YIL029W-A C-terminal 12 aa] | 0.6922 ± 0.0023 | 0.452 ± 0.016
EIVRNFSLFNMV [ARP3 C-terminal 12 aa] | 0.697 ± 0.031 | 0.6866 ± 0.0035
SQSFNPLESVQE [YPL229W C-terminal 12 aa] | 0.7038 ± 0.0039 | 0.709 ± 0.1
TKKSTGKGPASS [BOL3 C-terminal 12 aa] | 0.7 ± 0.033 | 0.675 ± 0.03
YDANGSSSTIKR [MAM3 C-terminal 12 aa] | 0.736 ± 0.011 | 0.7007 ± 0.00097
KCIRGGVFLWII [YGL014C-A C-terminal 12 aa] | 0.605 ± 0.019 | 0.309 ± 0.0041
TNNRHKYQNGRK [YLL032C C-terminal 12 aa] | 0.7 ± 0.053 | 0.664 ± 0.0094
RNYQKKGNKGCI [YCL076W C-terminal 12 aa] | 0.687 ± 0.024 | 0.679 ± 0.034
DHQVDFLGNKIL [YLR463C C-terminal 12 aa] | 0.712 ± 0.0082 | 0.715 ± 0.022
FHDWFIRQFVSN [SNO1 C-terminal 12 aa] | 0.73 ± 0.0093 | 0.321 ± 0.034
RPPRTRIPRLRR [YKR047W C-terminal 12 aa] | 0.7572 ± 0.0045 | 0.708 ± 0.036
YTPDQGVSLIDL [ENT2 C-terminal 12 aa] | 0.6978 ± 0.005 | 0.7 ± 0.015
PIALTMFQRWAS [UPA1 C-terminal 12 aa] | 0.688 ± 0.01 | 0.498 ± 0.038
NTSTYGQTVQPV [YLR456W C-terminal 12 aa] | 0.6791 ± 0.00098 | 0.678 ± 0.041
SLSTFPFVYKYL [EST3 C-terminal 12 aa] | 0.749 ± 0.019 | 0.127 ± 0.0095
RNKKKRFSWVGY [LAA2 C-terminal 12 aa] | 0.699 ± 0.066 | 0.661 ± 0.044
AKISDKENKAFL [MRPL15 C-terminal 12 aa] | 0.6927 ± 0.0019 | 0.678 ± 0.025

Sequence | protein stability index [1] | protein stability index (genetic background: wild type)
KENSRSWIIYLL [YGL034C C-terminal 12 aa] | 0.653 ± 0.016 | 0.556 ± 0.03
IAEGKSLGIIGA [HXK1 C-terminal 12 aa] | 0.6923 ± 0.0061 | 0.686 ± 0.034
IEQETGSEEKQE [SBP1 C-terminal 12 aa] | 0.6781 ± 0.0035 | 0.7729 ± 0.0054
NENIHSLIGNSY [NNF2 C-terminal 12 aa] | 0.702 ± 0.023 | 0.693 ± 0.0087
FEYEPPKFNLSE [GTB1 C-terminal 12 aa] | 0.689 ± 0.025 | 0.659 ± 0.037
IGFNKLGQMVYI [MRPS35 C-terminal 12 aa] | 0.669 ± 0.018 | 0.666 ± 0.029
RLKDGSVTCIKS [HMG1 C-terminal 12 aa] | 0.7299 ± 0.0059 | 0.7 ± 0.021
DDDDDDDDDEAD [RAD6 C-terminal 12 aa] | 0.686 ± 0.015 | 0.667 ± 0.0086
MDGFNDPFAAAA [GIP2 C-terminal 12 aa] | 0.736 ± 0.028 | 0.752 ± 0.072
IGGNCATRLFKL [SLM6 C-terminal 12 aa] | 0.7481 ± 0.0008 | 0.737 ± 0.024
LAIEIVLCLKAR [YLR255C C-terminal 12 aa] | 0.331 ± 0.0034 | 0.355 ± 0.019
SIGLTNLFLYRV [YDR010C C-terminal 12 aa] | 0.715 ± 0.0083 | 0.681 ± 0.01
DSIADEFSSLYF [SPR6 C-terminal 12 aa] | 0.7689 ± 0.0042 | 0.721 ± 0.046
EEEKRHGIYLKC [GUP1 C-terminal 12 aa] | 0.694 ± 0.029 | 0.647 ± 0.019
GQLTTDEETCIE [RTR2 C-terminal 12 aa] | 0.6793 ± 0.0044 | 0.726 ± 0.034
IQTLRIKQDRYK [MAK10 C-terminal 12 aa] | 0.711 ± 0.0083 | 0.665 ± 0.029
INEFIEQSCKGE [YMR187C C-terminal 12 aa] | 0.687 ± 0.024 | 0.7 ± 0.044
DQPFYKKMFGKK [HXT3 C-terminal 12 aa] | 0.6926 ± 0.0016 | 0.698 ± 0.042
SDVAKQLASFGY [RPL16B C-terminal 12 aa] | 0.7021 ± 0.0051 | 0.6663 ± 0.00093
MAMPPGQSQPQY [DHH1 C-terminal 12 aa] | 0.727 ± 0.0093 | 0.713 ± 0.034
KNWGPKARPNTS [TRM1 C-terminal 12 aa] | 0.698 ± 0.016 | 0.655 ± 0.011

Sequence | protein stability index [1] | protein stability index (genetic background: wild type)
MNRNKSDVPYLQ [YER053C-A C-terminal 12 aa] | 0.702 ± 0.014 | 0.658 ± 0.027
GKCTSSKFKLSS [KRE6 C-terminal 12 aa] | 0.71 ± 0.026 | 0.619 ± 0.024
EAVDRIVSHDEL [SEC20 C-terminal 12 aa] | 0.702 ± 0.014 | 0.6744 ± 0.00081
KKKVEFSFPDDI [MIL1 C-terminal 12 aa] | 0.701 ± 0.0087 | 0.73 ± 0.016
NLRADSFLQYPL [YDR029W C-terminal 12 aa] | 0.704 ± 0.0075 | 0.714 ± 0.021
TASTSNSRNQTM [SPO71 C-terminal 12 aa] | 0.701 ± 0.03 | 0.687 ± 0.038
NSKSNGNLFNSQ [NDD1 C-terminal 12 aa] | 0.72 ± 0.015 | 0.682 ± 0.015
THNEGSSVKKMH [SLC1 C-terminal 12 aa] | 0.694 ± 0.045 | 0.674 ± 0.037
IGSIKEDYLGAI [RPB7 C-terminal 12 aa] | 0.692 ± 0.021 | 0.6737 ± 0.0027
NENEFIAICTDS [CDC31 C-terminal 12 aa] | 0.698 ± 0.02 | 0.695 ± 0.022
QLITLLSKHLRT [HMS2 C-terminal 12 aa] | 0.693 ± 0.017 | 0.676 ± 0.042
HPCTSLTSVIVV [YGL072C C-terminal 12 aa] | 0.36 ± 0.045 | 0.433 ± 0.051
IIDLNLHSFTKQ [POP6 C-terminal 12 aa] | 0.722 ± 0.022 | 0.73 ± 0.021
NAASLIGTQQNN [DNF1 C-terminal 12 aa] | 0.709 ± 0.013 | 0.685 ± 0.013
STSDSENFMQQH [RPI1 C-terminal 12 aa] | 0.705 ± 0.013 | 0.729 ± 0.049
NPVVNRHIEHDD [COX13 C-terminal 12 aa] | 0.701 ± 0.011 | 0.707 ± 0.017
VFRIVARGYVGW [BBC1 C-terminal 12 aa] | 0.701 ± 0.04 | 0.691 ± 0.046
LGIVIKRGKSLK [YJU2 C-terminal 12 aa] | 0.7248 ± 0.0027 | 0.738 ± 0.024
QRCCECASGNGC [YDR442W C-terminal 12 aa] | 0.6843 ± 0.0013 | 0.668 ± 0.035
EIFNDFSKRCCF [CDC43 C-terminal 12 aa] | 0.7326 ± 0.0031 | 0.73168 ± 0.00037
LQHYRTHLKKGQ [NRG1 C-terminal 12 aa] | 0.7007 ± 0.0015 | 0.6784 ± 0.0039

Sequence | protein stability index [1] | protein stability index (genetic background: wild type)
SNEHSSENTAGP [STE3 C-terminal 12 aa] | 0.696 ± 0.013 | 0.684 ± 0.014
TSSNPKSHQYSK [ROF1 C-terminal 12 aa] | 0.717 ± 0.0022 | 0.689 ± 0.029
TLFCLLFRFIIF [YIP5 C-terminal 12 aa] | 0.265 ± 0.0053 | 0.2739 ± 0.001
IVIQVNNPLTRA [DOG1 C-terminal 12 aa] | 0.66 ± 0.011 | 0.7098 ± 0.0059
LALFAGLISALL [GAS3 C-terminal 12 aa] | 0.71854 ± 0.00069 | 0.654 ± 0.0065
GKNGARLSEIGW [SNZ2 C-terminal 12 aa] | 0.7224 ± 0.0061 | 0.691 ± 0.025
YDEIVPLMSDEE [ECM21 C-terminal 12 aa] | 0.7035 ± 0.0035 | 0.716 ± 0.057
WPVTKPEDTKDN [ZWF1 C-terminal 12 aa] | 0.699 ± 0.013 | 0.67 ± 0.018
DKYLCMLKTCVF [NUT1 C-terminal 12 aa] | 0.515 ± 0.019 | 0.517 ± 0.021
TKEYMDSIRSAK [VPS45 C-terminal 12 aa] | 0.687 ± 0.023 | 0.766 ± 0.099
SIRKKSKYAYAA [TPO1 C-terminal 12 aa] | 0.703 ± 0.012 | 0.642 ± 0.021
VKSNPQPAYTFQ [YFR012W-A C-terminal 12 aa] | 0.679 ± 0.02 | 0.6969 ± 2.8e-05
LNKIKNIRKKKQ [SNQ2 C-terminal 12 aa] | 0.705 ± 0.031 | 0.393 ± 0.021
FFSFIITIPFMV [YNL146W C-terminal 12 aa] | 0.305 ± 0.01 | 0.2042 ± 0.0015
NPTALEKGIKDL [TRX3 C-terminal 12 aa] | 0.714 ± 0.025 | 0.69 ± 0.016
EVISSYQIDMIV [HIM1 C-terminal 12 aa] | 0.657 ± 0.013 | 0.62 ± 0.0077
NGKKNEAYEGFV [EXP1 C-terminal 12 aa] | 0.699 ± 0.015 | 0.722 ± 0.014
IARSRRAFLSKL [MRP7 C-terminal 12 aa] | 0.843 ± 0.018 | 0.846 ± 0.089
LEWLSNNLKNQS [ARF2 C-terminal 12 aa] | 0.702 ± 0.0047 | 0.714 ± 0.041
